The record followed here is patent US20250295809A1.

The test concerns the target HER2 on cancer cell lines (BT-474, SK-BR-3, MDA-MB-361-luc) (human) (UniProt P04626). The test is described as follows: cell-based or functional assay.

For the substance ZW-25 bispecific antibody, the Emax, BT-474 cell proliferation (CellTiter-Glo 2.0, 4 days) amounted to 41.5%; the IC50, BT-474 cell proliferation (CellTiter-Glo 2.0, 4 days) was 0.125 µg/mL; the IC50, SK-BR-3 cell proliferation (CellTiter-Glo 2.0, 4 days) came out at 0.431 µg/mL.
